Assay: yeast display, Sf9 membrane polyspecificity reagent, FACS + sequencing; frameworks hold sequencing errors
How it was run: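 Using colony PCR, genes from sorted yeast display clones were amplified, then sequenced on MiSeq at 2 × 250 and filtered by CDR length. The clones had been stained with 10% biotinylated, detergent-solubilized Sf9 membrane reagent for 1 hour at 4 °C and sorted by FACS into low and high (top ~1%) gates on anti-HA and streptavidin fluorescence. Polyreactivity labels come from the gate of origin.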
For “QVQLVESGGGLVQAGGSLRLSCAASGSIFAYNAMGRYRPAPGKERELVAAITSDDSTNYADSVKGSFTISRDNAQNTVYLQMNSLKPEDTAVYDCAAYYYYTYIIGYDYCGQGTQVTVSS”, the “polyreactivity (PSR sort gate)” value was “low polyreactivity”. With “QVQLVESGGGLVQAGGSLRLSCAASGSIFAYNAMGWYRQAPGKEREFVAAISQSGGRTYYADSVKGRFTISRDNAKNTVYLQMNSLKPEDTAVYYCATDGIRLTRHRDYDYWGQGTQVTVSS” the “polyreactivity (PSR sort gate)” value was “low polyreactivity”. In the case of “QVQLVESGGGLVQAGGSLRLSCAASGSIFAYNAMGWYRQAPGKEREFVAVITRSDDSTYADSVKGRFTISRDNAKNTVYLQMNSLKPEDTAVYYCAAEYYETPYASLGYDYWGQGTQVTVSS”, the “polyreactivity (PSR sort gate)” value is reported as “low polyreactivity”. For “QVQLVESGGGLVQAGGSLRLSCAASGSIFAYNAMGWYRQAPGKERELVAAITDSGGSTFYADSVKGRFTISRDNAKTTVYLQMNSQKPEDTAVYYCATSGDRLVWGQCTQVTVSS”, the “polyreactivity (PSR sort gate)” value was “low polyreactivity”. With “QVQLVESGGGLVQAGGSLRLSCAASGSIFAYYAMGMYRQEPGKERELVAVIRSGGSTYYADSVKGRFTISRDNAKNTVYLQMNSLKPEDTAVYYCAARSYRPTRGDYWGQGTQVTVSS” the “polyreactivity (PSR sort gate)” value was “high polyreactivity”. In the case of “QVQLVESGGGLVQAGGSLRLSCAASGSIFAYYAMGWYRPAPGKERELVAAITVSGGRTNYADSVKGRFTISRDNAKNTVYLQMNSLKPEDTAVYYCAADTYSYWYARYDYWGQGTQVTVSS”, the “polyreactivity (PSR sort gate)” value is reported as “high polyreactivity”. In the case of “QVQLVESGGGLVQAGGSLRLSCAASGSIFAYYAMGWYRQAPGKEMELVARIRRRSSSTFYADSVKGRFTISRDNAKNTVYLQMNSLKPEDTAVYYCAVRGPGTSTYWYHEYEYWGQGTQVTVSS”, the “polyreactivity (PSR sort gate)” value is reported as “high polyreactivity”. In the case of “QVQLVESGGGLVQAGGSLRLSCAASGSIFAYYAMGWYRQAPGKERELVAAISRGGGSTYYADSVKGRFTISRDNAKNTVYLQMNSLKPEDTAVYYCAAQYVYWTNRVRQHVTLNDYWGQGTQVTVSS”, the “polyreactivity (PSR sort gate)” value is reported as “high polyreactivity”. In the case of “QVQLVESGGGLVQAGGSLRLSCAASGSIFAYYAMGWYRQAPGKERELVAAISWSGGRTYYADSVKGRFTISRDNAKNTVYLEMNSLIPEDTAVYYCTAYFYSFYYPFPYESWGQGTQVTVSS”, the “polyreactivity (PSR sort gate)” value is reported as “low polyreactivity”. With “QVQLVESGGGLVQAGGSLRLSCAASGSIFAYYAMGWYRQAPGKERELVAAITSGDSTYYADSVKGRFTISRDNAKNTVYLQMNSLKPEDTAVYYCAADHIWFYFYLYDYWGQGTQVTVSS” the “polyreactivity (PSR sort gate)” value was “high polyreactivity”. With “QVQLVESGGGLVQAGGSLRLSCAASGSIFAYYTMGWYRQAHGKERELVAAISRSGGSTNYADSVKGRFTISRDNAKNTVYLQMNSLKPEDTAVYYCAVRRYSRRLFGYYYWGQGTQVTVSS” the “polyreactivity (PSR sort gate)” value was “high polyreactivity”. For “QVQLVESGGGLVQAGGSLRLSCAASGSIFCYYAMGWYRQAPGKERELVAAINSGVRTYYADSVKGRFTISRDNAKNTVYLQMISLKPEDTAVYYCAARYIFKGLRYGYWGQGTQVTVSS”, the “polyreactivity (PSR sort gate)” value was “high polyreactivity”. With “QVQLVESGGGLVQAGGSLRLSCAASGSIFDAYMGWYRQAPGKERELVAGITRSGGSTYYADSVKGRFTISRDNAKNTVYLQMNSLKPEDTAVYYCAADYSSDGDYWGQGTQVTVSS” the “polyreactivity (PSR sort gate)” value was “low polyreactivity”. For “QVQLVESGGGLVQAGGSLRLSCAASGSIFDDNAMGWYRQAPGKERELVAAITSTDSTNYADSVKGRFTISRDNAKNTVYLQMNSLKPEDTAVYYCAKDARALWLHSGIYDYWGQGTQVTVSS”, the “polyreactivity (PSR sort gate)” value was “low polyreactivity”. With “QVQLVESGGGLVQAGGSLRLSCAASGSIFDDYAMGWYRQAPGKERELVAANSGSGDITYYADSVKGRFTISRDNAKNTFYLQMNSLKPEDTAVYYCAAESVYTFYWGQGTQVTVSS” the “polyreactivity (PSR sort gate)” value was “high polyreactivity”. For “QVQLVESGGGLVQAGGSLRLSCAASGSIFDDYVMGWYRQAPGKERELVAAIRSSGGRTYYADSVKGRFTISRDNAKNTVYLQMISLKPEDTAVYYCNAVTKHRQSVPYAYGYWGQGTQVTVSS”, the “polyreactivity (PSR sort gate)” value was “high polyreactivity”. With “QVQLVESGGGLVQAGGSLRLSCAASGSIFDGNAMGWYRQAPGKERELVASITYRGGSTYYADSVKGRFTISRDNAKNTVYLQMNSLQPEDTAVYYCAAVFKYRYDYWGQGTQVTVSS” the “polyreactivity (PSR sort gate)” value was “low polyreactivity”. With “QVQLVESGGGLVQAGGSLRLSCAASGSIFDGYAMGWDRQAPGKEREFVATITVSGGRTYYADSVKGRFTISRDNAKTTVYLQRNSLKPEDTAVYYCAARKVPLIRSSTVRQYYYWGQGTQVTVSS” the “polyreactivity (PSR sort gate)” value was “high polyreactivity”. In the case of “QVQLVESGGGLVQAGGSLRLSCAASGSIFDGYAMGWYRQAPGKEREFVAAITKRTGRTYYADSVKGRFTISRDNAKNTVYLQMNSLKPEDTAVYSCAARKKSLTTLRYGYWGQGTQVTVSS”, the “polyreactivity (PSR sort gate)” value is reported as “high polyreactivity”. For “QVQLVESGGGLVQAGGSLRLSCAASGSIFDGYAMGWYRQAPGKERELVAAISASGVRTYYADSVKGRFTISRDNAKNTVYLQMNSLKPEDTAVYYCAAAVYYGQSVWYYYWGQGTQVTVSS”, the “polyreactivity (PSR sort gate)” value was “high polyreactivity”. In the case of “QVQLVESGGGLVQAGGSLRLSCAASGSIFDHNAMGWYRQAPGKEREFVAAISSSGGSTYYADSVKGRFTISRDKAKNTVYLQMNSLKPEDTAVYYCAAFPDRYVEHGYWGQGTQVTVSS”, the “polyreactivity (PSR sort gate)” value is reported as “low polyreactivity”. In the case of “QVQLVESGGGLVQAGGSLRLSCAASGSIFDHTKAMGRYRQSPGKERELVAGITRGGSTNYADSVKGRFTISRDNAKNTFYLQMNSLKPEDTAVYYCAKAMPAKFYSEAGYDYWGQGTQVTVSS”, the “polyreactivity (PSR sort gate)” value is reported as “low polyreactivity”. With “QVQLVESGGGLVQAGGSLRLSCAASGSIFDIYAMGWYRQAPGKERELVAAITNGGSTYADSVKGRFTISRDNAKNTVYLQMNSLKPEDTAVYYCAAYVDQYEYNYWGQGTQVTVSS” the “polyreactivity (PSR sort gate)” value was “low polyreactivity”. For “QVQLVESGGGLVQAGGSLRLSCAASGSIFDIYGMGWYRQAPGKESELFASISGGAGSTNYADSVKGRFTISRDNAKNTVYLQMNSLKPEDTAVYYCAAEVYVPDYFQHKFDVEYEYWGQGTQVTVSS”, the “polyreactivity (PSR sort gate)” value was “low polyreactivity”. For “QVQLVESGGGLVQAGGSLRLSCAASGSIFDKNAMGWYRQAPGKERELVAAITSSGGDTYYADSVKGRFTISRDNAKNTVYLQMYSLKPEDTAVYYCAALGGRYRASTYGYWGQGTQVTVSS”, the “polyreactivity (PSR sort gate)” value was “high polyreactivity”. In the case of “QVQLVESGGGLVQAGGSLRLSCAASGSIFDLNAMGWYRQAPGKERELVAAISKSGGSTYYADSVKGRFTISRDNAKHTVYLQMNSLKPEDTAVYYCAARYHYPGNWYNYWGQGTQVTVSS”, the “polyreactivity (PSR sort gate)” value is reported as “low polyreactivity”. In the case of “QVQLVESGGGLVQAGGSLRLSCAASGSIFDLYAMGWYRQAPGKERELVAAITSTGSTYYADSVKGRFTISRDNAKNTVYLQMNSLKPEDTAVYYCAATRGSSEYYYWGQGTQVTVSS”, the “polyreactivity (PSR sort gate)” value is reported as “low polyreactivity”. With “QVQLVESGGGLVQAGGSLRLSCAASGSIFDLYAMGWYRQAPGKERELVASIRYSGGRTYYADSVKGRFTISRDNAKNTVYLQMNSLKPEDTAVYYCNRDGGYTFIMDYWGQGTQVTVSS” the “polyreactivity (PSR sort gate)” value was “low polyreactivity”. With “QVQLVESGGGLVQAGGSLRLSCAASGSIFDLYDMGWYRQAPGKERELVADISFSGGSTFYADSVKGRFTISRDNAKNTVYLQMNSLKPEDTAVYYCAADAALITDYGWADMYYWGQGTQVTVSS” the “polyreactivity (PSR sort gate)” value was “low polyreactivity”. For “QVQLVESGGGLVQAGGSLRLSCAASGSIFDNNAMGSYRQAPGKERELVAGINWDDGSTYYADSVKGRFTISRDNAKNTVHLQMISLKPEETAVYYCARDVYVYRWNDFWAVWTWYDYWGQGTQVTVSS”, the “polyreactivity (PSR sort gate)” value was “low polyreactivity”. With “QVQLVESGGGLVQAGGSLRLSCAASGSIFDNNAMGWYRQAPGKERELVAVITRSGGSTHYADSVKGRFTISRDNAKNTVYLQMNSLKPEDTAVYYCATDGLFYVDGSWTLGYWGQGTQVTVSS” the “polyreactivity (PSR sort gate)” value was “low polyreactivity”. In the case of “QVQLVESGGGLVQAGGSLRLSCAASGSIFDNNSMGWYRQAPGKERELVAAIDWSDGSTYYADSVKWRFTISRDNAKNTVYLQMNSLIPEDTSVYYCATVGKQKYDAKYGYWGQGTQVTVSS”, the “polyreactivity (PSR sort gate)” value is reported as “high polyreactivity”. For “QVQLVESGGGLVQAGGSLRLSCAASGSIFDNYAMGWYRQAPGKEREFDAGISWSGGSTRYADSVKGRFTISRDNAKNTVYLQMNSLKPEDTAVYYCNTGYGLVDFLYGYYYWGQGTQVTVSS”, the “polyreactivity (PSR sort gate)” value was “low polyreactivity”. In the case of “QVQLVESGGGLVQAGGSLRLSCAASGSIFDPNAMGWYRKALGKERELVAAITYSGVDTYYADSVKGRFTISLDNAKNTVYLQMNILKPEDTAVYFCAGDNGRVGYDYWGQGTQVTVSS”, the “polyreactivity (PSR sort gate)” value is reported as “low polyreactivity”. With “QVQLVESGGGLVQAGGSLRLSCAASGSIFDPYTMGWYRHEPGKESELVAAINWSGGSTYYADSVKGRFTISRENAKYTVYLQMNSLKPEDTAVYYCNADLTSYYEEDERNDDDYWGQGTQVTVSS” the “polyreactivity (PSR sort gate)” value was “low polyreactivity”. With “QVQLVESGGGLVQAGGSLRLSCAASGSIFDRYAMGWYRQAPGKERELVAAISTDGTRTYYADSVKGRFTISRDNAKNTVYLQMNSLKPEDTAVYYGAKYWRSNYYYWGQGTQVTVSS” the “polyreactivity (PSR sort gate)” value was “high polyreactivity”. With “QVQLVESGGGLVQAGGSLRLSCAASGSIFDSNAMGWYRQAPGKERELVAAITVSGGDTYYADSVKGRFTISRDNAKNTVYLQMISLKPEDTAVYYCAKQWFTYPYYYWGQGSQVTVSS” the “polyreactivity (PSR sort gate)” value was “high polyreactivity”. In the case of “QVQLVESGGGLVQAGGSLRLSCAASGSIFDSYAMGWYRQAPGKERELVADITSDGSTHYADSEKGRFRISRDNAKNTVYLQMNSLKPEDTAVYYCAADYFFYLLGVPVVDVYYWGQGTQVTVSS”, the “polyreactivity (PSR sort gate)” value is reported as “low polyreactivity”. With “QVQLVESGGGLVQAGGSLRLSCAASGSIFDSYAMGWYRQAPGKERELVASISYRGGSTYYADSVKGRFTISRDNAKNTVYLQMNSLKPEDTAVYYCAATPGYHYRSWRYYYWGQGTQVTVSS” the “polyreactivity (PSR sort gate)” value was “high polyreactivity”. In the case of “QVQLVESGGGLVQAGGSLRLSCAASGSIFDVNAMGRYRQAPGKERELVAAISQRGTRTYYADSVKGRFTISRDNAKNTVYLQLNSLKPEDTAVYYCNRGGWRQYDSWGQGTQVTVSS”, the “polyreactivity (PSR sort gate)” value is reported as “high polyreactivity”. In the case of “QVQLVESGGGLVQAGGSLRLSCAASGSIFDVNAMGWYRPAPGKERELVAAISDSGGSTYYADSVKGRFTISRDTAKNTVYLQMNSLKPEDTAVYYCNADWSWYNYYDFDYWGQGTQVTVSS”, the “polyreactivity (PSR sort gate)” value is reported as “low polyreactivity”. With “QVQLVESGGGLVQAGGSLRLSCAASGSIFDVNAMGWYRQAPGKERELVAAISDSGGSTYYADSVKGRFTISRDNAKNTVYLQMNSLKPEDTAVYYCNADWSWYNYYDLDYWGQGTQVTVSS” the “polyreactivity (PSR sort gate)” value was “low polyreactivity”. For “QVQLVESGGGLVQAGGSLRLSCAASGSIFDVNAMGWYRQAPGKERELVAAISQRGTRTYYADSVKGRFTISRDYAKNTVYLQMNSLTPEDTAVYYCNRGGWRQYDSWGQGTQVTVSS”, the “polyreactivity (PSR sort gate)” value was “high polyreactivity”.

From the nanobody polyreactivity screen of Harvey et al. (2022)
